Experimental findings from patent US20120316071A1 (published 2012) are described below.

Residue numbers refer to the chain shown, from its start. Numbers in names are those of the source.

Assay [1] has as its target T1, rHuman IGF-1 sR, CF (R&D Systems Cat#391-GR) (human, UniProt P08069 31-932).
T1 construct: Bought soluble receptor; also called insulin-like growth factor-1 soluble receptor
In words: ECL Multispot (MSD) assay, antigen spotted on plate, 10 nM Fab; blank spot 338.

Assay [2] deals with T2, rHuman EGF R/Fc Chimera, CF (R&D Systems Cat#344-ER) (human, UniProt P00533 25-645).
T2 construct: Bought recombinant Fc chimera; also called epidermal growth factor receptor; Fc part of the bought chimera not given
The description is as above.

In assay [3] the target is T3, rHuman ErbB2/Fc Chimera, CF (R&D Systems Cat#1129-ER) (human, UniProt P04626 23-652).
T3 construct: Bought recombinant Fc chimera; also called human epidermal growth factor 2 receptor; Fc part of the bought chimera not given
Described as above.

Assay [4] deals with T4, Recombinant Human DLL4 (R&D Systems Cat#1506-D4/CF) (human, UniProt Q9NR61 27-524).
T4 construct: Bought recombinant protein; also called delta-like protein 4; rHuman DLL4
Described as above.

The target of assay [5] is T5, rHuman P-Cadherin/Fc Chimera, CF (R&D Systems Cat#861-PC) (human, UniProt P22223 108-654).
T5 construct: Bought recombinant Fc chimera; Fc part of the bought chimera not given
Described as above.

In assay [6] the target is T6, rHuman HGF R/c-MET/Fc Chimera, CF (R&D Systems Cat#358-MT/CF) (human, UniProt P08581 25-932).
T6 construct: Bought recombinant Fc chimera; also called HGF R/Fc; hepatocyte growth factor receptor; Fc part of the bought chimera not given
The assay is described as above.

Assay [7] deals with T1, rHuman IGF-1 sR, CF (R&D Systems …). In words: ECL Multispot (MSD) assay, antigen spotted on plate, 10 nM Fab; blank spot 407.
In assay [8] the target is T2, rHuman EGF R/Fc Chimera, CF (R&D …). The assay is described as above.
Assay [9] has as its target T3, rHuman ErbB2/Fc Chimera, CF (R&D …). The description is as above.
Assay [10] has as its target T4, Recombinant Human DLL4 (R&D Systems …). The assay is described as above.
In assay [11] the target is T5, rHuman P-Cadherin/Fc Chimera, CF (R&D …). The description is as above.
The target in assay [12] is T6, rHuman HGF R/c-MET/Fc Chimera, CF (R&D …). The description is as above.
The target in assay [13] is T7, rHuman CD44/Fc Chimera, CF (R&D Systems Cat#3660-CD) (human, UniProt P16070 21-220).
T7 construct: Bought recombinant Fc chimera; Fc part of the bought chimera not given
In words: ECL Multispot (MSD) assay, antigen spotted on plate, 10 nM Fab; blank spot 322.

The target of assay [14] is T1, rHuman IGF-1 sR, CF (R&D Systems …). The description is as above.
Assay [15] deals with T2, rHuman EGF R/Fc Chimera, CF (R&D …). The description is as above.
In assay [16] the target is T3, rHuman ErbB2/Fc Chimera, CF (R&D …). The description is as above.
Assay [17] deals with T8, rHuman Erythropoietin R/Fc Chimera, CF (R&D Systems Cat#963-ER) (human, UniProt P19235 25-250).
T8 construct: Bought recombinant Fc chimera; also called EPO R; EPO R/Fc; Fc part of the bought chimera not given
T8 sequence (looked up): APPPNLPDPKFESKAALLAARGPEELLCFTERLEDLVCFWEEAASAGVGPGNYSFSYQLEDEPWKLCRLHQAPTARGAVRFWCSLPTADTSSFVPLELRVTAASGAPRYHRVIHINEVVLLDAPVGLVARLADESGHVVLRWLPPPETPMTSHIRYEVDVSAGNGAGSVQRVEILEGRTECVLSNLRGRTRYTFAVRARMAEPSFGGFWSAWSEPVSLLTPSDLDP
Described as above.

In assay [18] the target is T4, Recombinant Human DLL4 (R&D Systems …). The assay is described as above.
In assay [19] the target is T5, rHuman P-Cadherin/Fc Chimera, CF (R&D …). Described as above.
Assay [20] addresses T6, rHuman HGF R/c-MET/Fc Chimera, CF (R&D …). The assay is described as above.
The target in assay [21] is T9, rHuman Notch-1/Fc Chimera, CF (R&D Systems Cat#3647-TK) (human, UniProt P46531 19-526).
T9 construct: Bought recombinant Fc chimera; Fc part of the bought chimera not given
The description is as above.

Assay [22] concerns the target T7, rHuman CD44/Fc Chimera, CF (R&D Systems …). The assay can be described thus: ECL Multispot (MSD) assay, antigen spotted on plate, 10 nM Fab; blank spot 151.
For assay [23], the target named is T1, rHuman IGF-1 sR, CF (R&D Systems …). The description is as above.
In assay [24] the target is T2, rHuman EGF R/Fc Chimera, CF (R&D …). Described as above.
Assay [25] has as its target T3, rHuman ErbB2/Fc Chimera, CF (R&D …). Described as above.
Assay [26] addresses T8, rHuman Erythropoietin R/Fc Chimera, CF …. Described as above.
Assay [27] concerns the target T4, Recombinant Human DLL4 (R&D Systems …). Described as above.
The target in assay [28] is T5, rHuman P-Cadherin/Fc Chimera, CF (R&D …). The assay is described as above.
Assay [29] addresses T6, rHuman HGF R/c-MET/Fc Chimera, CF (R&D …). The description is as above.
In assay [30] the target is T9, rHuman Notch-1/Fc Chimera, CF (R&D …). The assay is described as above.
Assay [31] deals with T7, rHuman CD44/Fc Chimera, CF (R&D Systems …). The assay can be described thus: ECL Multispot (MSD) assay, antigen spotted on plate, 10 nM Fab; blank spot 367.
Assay [32] concerns the target T1, rHuman IGF-1 sR, CF (R&D Systems …). The assay is described as above.
Assay [33] addresses T2, rHuman EGF R/Fc Chimera, CF (R&D …). The description is as above.
In assay [34] the target is T3, rHuman ErbB2/Fc Chimera, CF (R&D …). Described as above.
Assay [35] concerns the target T8, rHuman Erythropoietin R/Fc Chimera, CF …. The description is as above.
Assay [36] has as its target T4, Recombinant Human DLL4 (R&D Systems …). The description is as above.
The target in assay [37] is T5, rHuman P-Cadherin/Fc Chimera, CF (R&D …). Described as above.
Assay [38] concerns the target T6, rHuman HGF R/c-MET/Fc Chimera, CF (R&D …). Described as above.
Assay [39] concerns the target T9, rHuman Notch-1/Fc Chimera, CF (R&D …). The assay is described as above.

T6 sequence (P08581 25-932, change not shown): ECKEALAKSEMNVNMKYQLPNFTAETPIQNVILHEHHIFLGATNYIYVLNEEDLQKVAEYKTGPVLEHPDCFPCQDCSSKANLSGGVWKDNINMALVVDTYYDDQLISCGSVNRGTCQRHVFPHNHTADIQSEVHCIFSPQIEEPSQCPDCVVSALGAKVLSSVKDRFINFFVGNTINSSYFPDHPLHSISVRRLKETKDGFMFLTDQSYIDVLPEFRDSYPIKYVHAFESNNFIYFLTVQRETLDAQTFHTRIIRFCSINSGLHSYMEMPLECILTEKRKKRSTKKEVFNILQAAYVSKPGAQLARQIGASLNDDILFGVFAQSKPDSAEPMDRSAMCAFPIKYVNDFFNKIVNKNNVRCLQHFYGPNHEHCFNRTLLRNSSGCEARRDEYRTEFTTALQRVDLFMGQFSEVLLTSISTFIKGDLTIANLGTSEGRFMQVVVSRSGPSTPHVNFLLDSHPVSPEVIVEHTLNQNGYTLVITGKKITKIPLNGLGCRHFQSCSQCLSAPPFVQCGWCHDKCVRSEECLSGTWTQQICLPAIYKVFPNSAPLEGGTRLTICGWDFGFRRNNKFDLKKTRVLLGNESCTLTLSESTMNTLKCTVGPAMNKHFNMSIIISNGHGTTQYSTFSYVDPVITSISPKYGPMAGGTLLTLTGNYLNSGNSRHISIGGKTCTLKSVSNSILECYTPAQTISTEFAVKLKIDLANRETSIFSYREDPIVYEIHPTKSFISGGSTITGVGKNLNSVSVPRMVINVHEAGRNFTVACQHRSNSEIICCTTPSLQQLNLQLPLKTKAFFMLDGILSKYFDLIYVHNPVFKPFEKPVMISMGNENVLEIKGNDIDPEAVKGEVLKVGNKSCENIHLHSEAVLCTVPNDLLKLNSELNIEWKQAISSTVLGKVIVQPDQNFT

B1: Fab VH1-46_IGHD6-6*01_IGHJ1*01 S102A/S103P/S104F/H111F & L6_IGKJ1*01 (Fab, V domains shown)
VH: QVQLVQSGAEVKKPGASVKVSCKASGYTFTSYYMHWVRQAPGQGLEWMGIINPSGGSTSYAQKFQGRVTMTRDTSTSTVYMELSSLRSEDTAVYYCAREEYAPFSAEYFQFWGQGTLVTVSS
VL: not shown
notes: Fab expressed in E. coli: VH joined to CH1 from Plasmid A (with His6 and Flag tags), VL joined to kappa CL from Plasmid C; also called APFF; H:APFF & L:wt
Turning to B1, the ECL signal in assay [1] came to 468; in assay [2] it was 425; in [3], 379; in assay [4], 149000; in [5], 399; in assay [6] it was 332. Also, the ECL signal amounted to 357 in assay [7]; 329 in assay [8]; 292 in assay [9]; 126000 in [10]; 277 in assay [11]; 237 in assay [12].

B2: Fab VH1-46_IGHD6-6*01_IGHJ1*01 S102A/S103P/S104F/H111F S84R & L6_IGKJ1*01 (Fab, V domains shown)
VH: B1 VH with S84R
VL: not shown
notes: Fab expressed in E. coli: VH joined to CH1 from Plasmid A (with His6 and Flag tags), VL joined to kappa CL from Plasmid C; also called APFF S84R
As to B2, the ECL signal in [13] amounted to 335; in assay [14], 395; in [15], 435; in assay [16] it was 372; in [17], 393; in assay [18] it was 139000. Also, the figures for the ECL signal in [19], in [20] and in assay [21] were 310, 392 and 377, respectively.

B3: Fab VH1-46_IGHD6-6*01_IGHJ1*01 S102A/S103P/S104F/H111F S84T & L6_IGKJ1*01 (Fab, V domains shown)
VH: B1 VH with S84T
VL: not shown
notes: Fab expressed in E. coli: VH joined to CH1 from Plasmid A (with His6 and Flag tags), VL joined to kappa CL from Plasmid C; also called APFF S84T
With B3, the ECL signal in assay [22] came to 352; in [23], 281; in assay [24] it was 293; in assay [25], 297; in assay [26], 328; in assay [27], 163000. The ECL signal in assay [28] came out at 180; in assay [29] it was 274; in assay [30] it was 372.

B4: Fab VH1-46_IGHD6-6*01_IGHJ1*01 S102A/S103P/S104F/H111F S84K & L6_IGKJ1*01 (Fab, V domains shown)
VH: B1 VH with S84K
VL: not shown
notes: Fab expressed in E. coli: VH joined to CH1 from Plasmid A (with His6 and Flag tags), VL joined to kappa CL from Plasmid C; also called APFF S84K
As to B4, the ECL signal in assay [31] is 386; in [32], 405; in assay [33], 301; in assay [34], 354; in [35], 528; in assay [36], 164000. Also, the ECL signal in [37] turned out to be 517; in assay [38] it was 317; in assay [39], 400.
